Data: patent US20210277137A1 (AbbVie / Abbott, published 2021)
Where a chain is given by its changes, count along the chain named. Names may count otherwise.

B1: Humanized muAb6 #1 (antibody, V domains shown)
VH: EVQLVQSGAEVKKPGSSVKVSCKASGYTFTSYWMHWVRQAPGQGLEWIGNIDPSNGETHYNQKFKDRATLTVDKSTSTAYMELSSLRSEDTAVYYCARERIYYSGSTYDGYFDVWGQGTTVTVSS
VL: DIQLTQSPSFLSASVGDRVTITCSASSSLSYMHWYQQKPGKSPKRWIYDTSKLASGVPSRFSGSGSGTEYTLTISSLQPEDFATYYCQQWSSNPWTFGGGTKVEIK
B2: Humanized muAb6 #2 (antibody, V domains shown)
VH: B1 VH with A68V, L70I
VL: B1 VL
B3: Humanized muAb6 #3 (antibody, V domains shown)
VH: B1 VH with N61A, K65Q, D66G, A68V, L70I
VL: B1 VL
B4: Humanized muAb9 #1 (antibody, V domains shown)
VH: EVQLQESGPGLVKPSETLSLTCTVSGYSITSNYYWNWIRQPPGKGLEWMGYIRYDGSNNYNPSLKNRITISRDTSKNQFSLKLSSVTAADTAVYYCARLDYWGQGTTVTVSS
VL: DAVMTQTPLSLSVTPGQPASISCRSSQSLENTNGNTFLNWFLQKPGQSPQLLIYRVSNRFSGVPDRFSGSGSGTDFTLKISRVEAEDVGVYFCLQVTHVPFTFGQGTKLEIK
B5: Humanized muAb9 #4 (antibody, V domains shown)
VH: B4 VH
VL: B4 VL with F41Y, F92Y
B6: Humanized muAb9 #3 (antibody, V domains shown)
VH: B4 VH with T30S, N66S, I68V
VL: B4 VL
B7: Humanized muAb9 #2 (antibody, V domains shown)
VH: B4 VH with I68V
VL: B4 VL
B8: Humanized muAb9 #6 (antibody, V domains shown)
VH: B4 VH with T30S, N66S, I68V
VL: B4 VL with F41Y, F92Y
B9: AD163.9.3 (antibody, V domains shown)
VH: QVQLQQPGAELVKPGASVKMSCKASGYTFTSYWITWVKQRPGQGLEWIGEINPGSGSTNYNEKFKSKATLTVDTSSSTAYMQLSSLTSEDSAVYYCARNRGTGDYWGQGTTLTVSS
VL: DVVMTQTPLSLPVSLGDQASISCRSSQSLVHSYGNTYLHWYLQKPGQSPKFLIYKVSNRISGVPDRLSGSGSGTDFTLKISRVEPEDLGVYFCSQSTHVPYTFGGGTKLEIK
notes: mouse hybridoma monoclonal; also called muAb1
B10: AD166.4.4 (antibody, V domains shown)
VH: QVQLQQSGAELMKPGASAKLSCKATGYTFTGYWIQWVKQRPGHGLEWIGEILPGGDHTKYNEKFRGKATFTSDTSSNTVYMQLSSLTTEDSAIYYCARVGGDYWGQGTTLTVSS
VL: B9 VL with H31N, Y33N, G34E, F51L, S57F, I60Y, L67F, P85A, S94F, Y101W
notes: mouse hybridoma monoclonal; also called muAb2
B11: AD163.7.2 (antibody, V domains shown)
VH: QVQLQQSGPELVKSGASVKISCKASGYTFTDYYINWVKQRPGQGLEWIGWIFPGSGSVYCNEQFKGQATLTVDRSSSTAYMLLSSLTSEDSAVYFCASSLGKFAYWGQGTLVTVSA
VL: DIVMTQSQKFMSTTVGDRVSITCKASQSVVTAVAWYQQKPGQSPKLLIYSASNRYTGVPDRFTGSGSGTDFALTIRTMQSEDLADYFCQQYSSYPYTFGGGTKLEIK
notes: mouse hybridoma monoclonal; also called muAb8
B12: AD164.76.3 (antibody, V domains shown)
VH: DVQLQESGPGLVKPSQSLSLTCSVTGYSITSNYYWNWIRQFPGNKLEWMGYIRYDGSNNYNPSLKNRISITRDTSKNQFFLRLNSVTTEDTATYYCTRLDYWGQGTTLTVSS
VL: B4 VL with S12P, T14S, P15L, Q17D, P18Q, T32S, V56I, V88L, Q105S
notes: mouse hybridoma monoclonal; also called muAb10
B13: AD164.14.6 (antibody, V domains shown)
VH: B12 VH with R82K, T97A
VL: B4 VL with S12P, T14S, P15L, Q17D, P18Q, V88L, Q105S
notes: mouse hybridoma monoclonal; also called muAb9
B14: AD163.10.7 (antibody, V domains shown)
VH: LVQPGGSLSLSCAASGFTFSDYYMSWVRQPPGKALEWLGFIRNKANGYTTEFSASVKGRFTISRDNSQSILYLQMNALRAEDSATYYCARYGGLRQGWYFDVWGTGTTVTVSS
VL: DIQMTQTTSSLSASLGDRVTISCRASQDIRNYLNWYQQKPDGTVKLLIYYTSRLHSGVPSRFSGSGSGTDYSLTISNLEQEDIATYFCQQGKTLPWTFGGGSKLEMK
notes: mouse hybridoma monoclonal; also called muAb4
B15: AD175.14.11 (antibody, V domains shown)
VH: EVQLQQSGPELVKPGASVKISCKASGYTFTDYYMNWVKQSHGKSLEWIGDINPNNGGTSYNQKFKGKATLTVDKSSSTAYMELRSLTSEDSAVYYCARRGGLGRGTYALDYWGQGTSVTVSS
VL: B14 VL with R30S, L46P, S56L, K92N, W96L, G100A, S102T, M106L
notes: mouse hybridoma monoclonal; also called muAb3
B16: AD163.162.1 (antibody, V domains shown)
VH: QVQLQQPGAELVRPGSSVKLSCKASGYTFTSYWMHWVKQRPIQGLEWIGNIDPSNGETHYNQKFKDKATLTVDKSSSTAYMQLSSLTSEDSAVYYCARERIYYSGSTYDGYFDVWGTGTTVTVSS
VL: QIVLTQSPAIMSASPGEKVTMTCSASSSLSYMHWYQQKSGTSPKRWIYDTSKLASGVPARFSGSGSGTSYSLTISSMEAEDAATYYCQQWSSNPWTFGGGTKLEIK
notes: mouse hybridoma monoclonal; also called muAb6
B17: AD163.27.12 (antibody, V domains shown)
VH: B16 VH
VL: B16 VL with A79G, A82G
notes: mouse hybridoma monoclonal; same VH as muAb6; also called muAb7
B18: AD165.1.2 (antibody, V domains shown)
VH: DVQLQESGPGLVEPSQSLFLTCSVTGYSITTNYNWNWIRQFPGNKLEWMGYIRHDGTNNYNPSLKNRISIIRDTPKNQFFLKLNSVTTEDTAIYFCTRLDYWGQGTSVTVSS
VL: DAVMTQTPLSLPVSLGDQASISCRSSQSLENSYGNTFLNWFLQRPGQSPQLLIYRVSNRFCGVPDRFSGSGSGTDFTLKISRVEAEDLGIYFCLQVTHVPYTFGGGTKLEIK
notes: mouse hybridoma monoclonal; also called muAb5
B19: CP-870,893 (antibody, human IgG2, kappa, V domains shown)
VH: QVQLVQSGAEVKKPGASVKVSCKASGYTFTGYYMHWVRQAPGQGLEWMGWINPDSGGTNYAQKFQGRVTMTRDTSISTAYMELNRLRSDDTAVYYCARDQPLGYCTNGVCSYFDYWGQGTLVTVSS
VL: DIQMTQSPSSVSASVGDRVTITCRASQGIYSWLAWYQQKPGKAPNLLIYTASTLQSGVPSRFSGSGSGTDFTLTISSLQPEDFATYYCQQANIFPLTFGGGTKVEIKR
B20: Humanized muAb9 A2V (antibody, human IgG1, kappa)
heavy: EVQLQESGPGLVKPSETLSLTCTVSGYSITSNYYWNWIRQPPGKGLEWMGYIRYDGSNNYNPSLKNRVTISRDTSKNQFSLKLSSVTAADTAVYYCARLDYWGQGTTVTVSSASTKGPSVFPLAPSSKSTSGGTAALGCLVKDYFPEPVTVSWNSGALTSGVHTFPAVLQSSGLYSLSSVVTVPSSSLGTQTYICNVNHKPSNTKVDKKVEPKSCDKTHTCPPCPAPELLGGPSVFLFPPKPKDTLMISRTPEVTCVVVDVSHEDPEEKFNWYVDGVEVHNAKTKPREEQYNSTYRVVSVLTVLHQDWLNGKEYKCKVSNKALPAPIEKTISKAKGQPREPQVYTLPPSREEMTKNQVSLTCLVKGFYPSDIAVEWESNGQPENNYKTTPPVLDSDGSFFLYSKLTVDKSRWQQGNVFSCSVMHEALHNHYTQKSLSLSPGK
light: DVVMTQTPLSLSVTPGQPASISCRSSQSLENTNGNTFLNWYLQKPGQSPQLLIYRVSNRFSGVPDRFSGSGSGTDFTLKISRVEAEDVGVYYCLQVTHVPFTFGQGTKLEIKRTVAAPSVFIFPPSDEQLKSGTASVVCLLNNFYPREAKVQWKVDNALQSGNSQESVTEQDSKDSTYSLSSTLTLSKADYEKHKVYACEVTHQGLSSPVTKSFNRGEC
notes: human IgG1 V273E/kappa; also called huAb9 A2V

molecular target: T1, human CD40 on cells (human, UniProt P25942 21-277); experiment: cell-based or functional assay
T1 sequence (P25942 21-277 limits assumed): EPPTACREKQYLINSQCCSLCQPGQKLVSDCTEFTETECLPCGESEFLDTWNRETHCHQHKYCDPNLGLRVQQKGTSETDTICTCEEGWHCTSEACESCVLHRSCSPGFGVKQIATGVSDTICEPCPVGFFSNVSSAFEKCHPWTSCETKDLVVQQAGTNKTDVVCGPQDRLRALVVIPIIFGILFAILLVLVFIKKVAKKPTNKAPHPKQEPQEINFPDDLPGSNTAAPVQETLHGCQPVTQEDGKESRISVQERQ
Wherever moDC activation (IL-12p70, pg/mL) is given: test concentration or dose not given here.

Row | Maximal activation (OD655) in HEK293 blue CD40 NFκB reporter cells [OD655] | NFκB activation EC50 (SEAP, OD655) in HEK293 blue CD40 NFκB reporter cells [µg/mL] | Binder
1 | 0.26 | 1.09 | B1
2 | 0.2 | 1.21 | B2
3 | 0.32 | 4.31 | B3
4 | 0.26 | 0.19 | B4
5 | 0.61 | 5.55 | B5
6 | 0.27 | 0.18 | B6
7 | 0.27 | 0.29 | B7
8 | 0.54 | 5.95 | B8

molecular target: T2, CD40-human Fc (huFc) fusion protein (Creative BioMart) (human, UniProt P25942 21-193); experiment: ELISA: CD40-huFc mixed with antibody, binding to plate-bound HA-tagged CD40L; further: test concentration or dose not given here
T2 construct: bought; also called CD40-huFc; not shown: human Fc
T2 sequence (P25942 21-193 limits assumed): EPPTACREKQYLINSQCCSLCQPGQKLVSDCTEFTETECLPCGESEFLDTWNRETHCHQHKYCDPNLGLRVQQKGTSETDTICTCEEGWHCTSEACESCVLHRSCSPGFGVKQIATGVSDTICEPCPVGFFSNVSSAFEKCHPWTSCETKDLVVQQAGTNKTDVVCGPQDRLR
Excerpt: After development with TMB (3, 3′, 5, 5′-tetramethylbenzidine) substrate, the plates were read at OD₄₅₀.

Row | OD450 Ratio | OD450 with anti-CD40 antibody [OD450] | Binder
9 | 2.22 ratio to isotype control | 1.78 | B9
10 | 1.28 ratio to isotype control | 1.02 | B10
11 | 0.08 ratio to isotype control | 0.066 | B11
12 | 2.63 ratio to isotype control | 2.11 | B12
13 | 2.35 ratio to isotype control | 1.88 | B13
14 | 1.68 ratio to isotype control | 1.34 | B14
15 | 0.09 ratio to isotype control | 0.068 | B15
16 | 0.57 ratio to isotype control | 0.455 | B16
17 | 0.41 ratio to isotype control | 0.328 | B17
18 | 1.24 ratio to isotype control | 0.989 | B18

molecular target: T1, human CD40 on cells; experiment: cell-based or functional assay; remark: another data set of the same source

Row | NFκB activity EC50; HEK293 blue CD40 reporter cells co-cultured with CHO cells expressing CD16F [nM] | NFκB activity EC50; HEK293 blue CD40 reporter cells co-cultured with CHO cells expressing CD16V [nM] | NFκB activity EC50; HEK293 blue CD40 reporter cells co-cultured with CHO cells expressing CD32a [nM] | NFκB activity EC50; HEK293 blue CD40 reporter cells co-cultured with CHO cells expressing CD32b [nM] | NFκB activity EC50; HEK293 blue CD40 reporter cells co-cultured with CHO cells expressing CD64 [nM] | NFκB activity EC50; HEK293 blue CD40 reporter cells co-cultured with FcγR negative CHO cells [nM] | Binder
19 | 0.03 | 0.02 | 0.02 | 0.02 | 0.02 | 0.03 | B19

molecular target: T3, soluble cynomolgus (cyno) CD40 (Creative BioMart, cat #CD40-8824C) (cynomolgus, UniProt G7PG38 21-193); experiment: SPR (BIAcore T200); antibody captured by anti-Fc; soluble CD40 injected
T3 construct: extracellular domain; also called Cynomolgus CD40
Method: (§1) CD40 binding kinetics was analyzed by BIAcore assay with a BIAcore T200 instrument. Briefly, a goat anti-mouse Fc antibody (Pierce, cat #31170) or goat anti-human Fc (Pierce, cat #31125) was immobilized on a CM5 sensor chip, followed by capture of the anti-CD40 antibodies on the test surface.

Row | Kd [nM] | koff [s⁻¹] | kon [M⁻¹ s⁻¹] | Binder
20 | 140 | 0.27 | 1.9e+06 | B20

molecular target: soluble form of the extracellular domain of human CD40 (Creative BioMart, cat #CD402221H) (human, UniProt P25942 21-193); experiment: as above
Sequence (P25942 21-193 limits assumed): as above
Method: as §1

Row | Kd [nM] | koff [s⁻¹] | kon [M⁻¹ s⁻¹] | Binder
21 | 170 | 0.26 | 1.5e+06 | B20

molecular target: T1, human CD40 on cells; experiment: cell-based or functional assay; remark: another data set of the same source

Row | moDC activation (IL-12p70, pg/mL) [pg/mL] | Binder
22 | 2220 | B9
23 | 0 | B10
24 | 905 | B11
25 | 770 | B12
26 | 878 | B13
27 | 1320 | B14
28 | 0 | B15
29 | 2160 | B16
30 | 1510 | B17
31 | 720 | B18
